Assay results from article PMC4678846.

Substrate: CC(C)(C)OC(=O)NCCCC[C@H](N)C(=O)O
Assay: purified protein
Conditions: wild-type tRNA^Pyl, 10 mM ATP, 10 mM MgCl2, pH 7.2, 37 °C, apparent, amino acid not given, BocK inferred

B1: MbPylRS (Methanosarcina barkeri str. Fusaro) (protein)
chain: MDKKPLDVLISATGLWMSRTGTLHKIKHYEVSRSKIYIEMACGDHLVVNNSRSCRTARAFRHHKYRKTCKRCRVSDEDINNFLTRSTEGKTSVKVKVVSAPKVKKAMPKSVSRAPKPLENPVSAKASTDTSRSVPSPAKSTPNSPVPTSAPAPSLTRSQLDRVEALLSPEDKISLNIAKPFRELESELVTRRKNDFQRLYTNDREDYLGKLERDITKFFVDRDFLEIKSPILIPAEYVERMGINNDTELSKQIFRVDKNLCLRPMLAPTLYNYLRKLDRILPDPIKIFEVGPCYRKESDGKEHLEEFTMVNFCQMGSGCTRENLESLIKEFLDYLEIDFEIVGDSCMVYGDTLDIMHGDLELSSAVVGPVPLDREWGIDKPWIGAGFGLERLLKVMHGFKNIKRASRSESYYNGISTNL
B1 was tested, and the Km was 1030 ± 50 µM.
